Assay results taken from patent US20240190962A1 (IMMUNOWAKE, published 2024).
Where a chain is given by its changes, count along the chain named. In names and notes the source's numbering stands.

T1: human IL-2 receptor (IL-2Rα, IL-2Rβ, IL-2Rγ) (human, UniProt P01589 22-272; P14784 27-551; P31785 23-369)
T1 sequence (looked up) 1: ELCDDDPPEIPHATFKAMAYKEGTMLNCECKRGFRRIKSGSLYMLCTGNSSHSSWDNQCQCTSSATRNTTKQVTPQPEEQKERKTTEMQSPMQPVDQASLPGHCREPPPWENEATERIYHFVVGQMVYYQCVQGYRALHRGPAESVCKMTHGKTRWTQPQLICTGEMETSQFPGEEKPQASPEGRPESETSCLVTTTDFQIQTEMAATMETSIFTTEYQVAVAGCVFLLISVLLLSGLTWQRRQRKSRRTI
T1 sequence (looked up) 2: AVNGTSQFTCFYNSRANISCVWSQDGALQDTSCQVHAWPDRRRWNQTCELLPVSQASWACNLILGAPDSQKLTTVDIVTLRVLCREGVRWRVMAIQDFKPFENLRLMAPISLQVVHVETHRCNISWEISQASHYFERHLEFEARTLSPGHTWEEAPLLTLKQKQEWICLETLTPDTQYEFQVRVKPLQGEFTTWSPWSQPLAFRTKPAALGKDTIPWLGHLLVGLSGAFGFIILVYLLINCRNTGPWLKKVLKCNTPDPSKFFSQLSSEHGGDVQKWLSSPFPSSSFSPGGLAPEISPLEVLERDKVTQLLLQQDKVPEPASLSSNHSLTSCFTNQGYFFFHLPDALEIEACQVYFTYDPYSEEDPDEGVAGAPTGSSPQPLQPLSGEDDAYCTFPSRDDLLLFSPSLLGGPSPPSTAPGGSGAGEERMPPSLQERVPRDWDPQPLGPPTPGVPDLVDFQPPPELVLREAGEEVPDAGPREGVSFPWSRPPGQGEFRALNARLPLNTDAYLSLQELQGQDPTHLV
T1 sequence (looked up) 3: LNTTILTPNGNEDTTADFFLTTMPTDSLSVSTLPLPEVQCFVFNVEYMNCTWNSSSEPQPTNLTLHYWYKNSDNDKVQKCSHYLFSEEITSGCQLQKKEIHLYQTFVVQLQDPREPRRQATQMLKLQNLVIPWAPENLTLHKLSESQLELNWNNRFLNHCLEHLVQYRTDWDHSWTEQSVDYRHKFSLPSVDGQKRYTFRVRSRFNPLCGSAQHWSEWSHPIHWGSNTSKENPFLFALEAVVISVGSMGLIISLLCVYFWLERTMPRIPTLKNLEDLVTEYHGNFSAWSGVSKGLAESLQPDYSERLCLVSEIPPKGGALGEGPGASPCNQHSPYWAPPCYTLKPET

B1: PD-L1(mut2)-Fc/IL-12(E59A/F60A) (Fc fusion)
chain 1: FTVTVPKDLYVVEYGSNMTIECKFPVEKQLDLAALQVYWMMEDKNIIQFVHGEEDLKVQHSSYRQRARLLKDQLSLGNAALQITDVKLQDAGVYTCLIAYKGADYKRITVKVNAPYNKINQRILVVDPVTSEHELTCQAEGYPKAEVIWTSSDHQVLSGKTTTTNSKREEKLFNVTSTLRINTTTNEIFYCTFRRLDPEENHTAELVIPELPLAHPPNERGGGGSGGGDKTHTCPPCPAPEDEGGPSVFLFPPKPKDTLMISRTPEVTCVVVDVSHEDPEVKFNWYVDGVEVHNAKTKPREEQYNSTYRVVSVLTVLHQDWLNGKEYKCKVSNKALPAPIEKTISKAKGQPREPQVYVYPPSREEMTKNQVSLTCLVKGFYPSDIAVEWESNGQPENNYKTTPPVLDEDGSFALVSKLTVDKSRWQQGNVFSCSVMHEALHNHYTQKSLSLSPGKGGGGSGGGIWELKKDVYVVELDWYPDAPGEMVVLTCDTPEEDGITWTLDQSSEVLGSGKTLTIQVKAAGDAGQYTCHKGGEVLSHSLLLLHKKEDGIWSTDILKDQKEPKNKTFLRCEAKNYSGRFTCWWLTTISTDLTFSVKSSRGSSDPQGVTCGAATLSAERVRGDNKEYEYSVECQEDSACPAAEESLPIEVMVDAVHKLKYENYTSSFFIRDIIKPDPPKNLQLKPLKNSRQVEVSWEYPDTWSTPHSYFSLTFCVQVQGKSKREKKDRVFTDKTSATVICRKNASISVRAQDRYYSSSWSEWASVPCSGGGGSGGGSGGGGSRNLPVATPDPGMFPCLHHSQNLLRAVSNMLQKARQTLEFYPCTSEEIDHEDITKDKTSTVEACLPLELTKNESCLNSRETSFITNGSCLASRKTSFMMALCLSSIYEDLKMYQVEFKTMNAKLLMDPKRQIFLDQNMLAVIDELMQALNFNSETVPQKSSLEEPDFYKTKIKLCILLHAFRIRAVTIDRVMSYLNAS
chain 2: FTVTVPKDLYVVEYGSNMTIECKFPVEKQLDLAALQVYWMMEDKNIIQFVHGEEDLKVQHSSYRQRARLLKDQLSLGNAALQITDVKLQDAGVYTCLIAYKGADYKRITVKVNAPYNKINQRILVVDPVTSEHELTCQAEGYPKAEVIWTSSDHQVLSGKTTTTNSKREEKLFNVTSTLRINTTTNEIFYCTFRRLDPEENHTAELVIPELPLAHPPNERGGGGSGGGDKTHTCPPCPAPEKKGGPSVFLFPPKPKDTLMISRTPEVTCVVVDVSHEDPEVKFNWYVDGVEVHNAKTKPREEQYNSTYRVVSVLTVLHQDWLNGKEYKCKVSNKALPAPIEKTISKAKGQPREPQVYVLPPSREEMTKNQVSLLCLVKGFYPSDIAVEWESNGQPENRYMTWPPVLDSDGSFFLYSKLTVDKSRWQQGNVFSCSVMHEALHNHYTQKSLSLSPGK
B2: IL-2(R38D/K43E/E61R/Q126T)/PD-L1(mut2)-Fc/IL-12(E59A/F60A) (Fc fusion)
chain 1: B1 chain 1
chain 2: FTVTVPKDLYVVEYGSNMTIECKFPVEKQLDLAALQVYWMMEDKNIIQFVHGEEDLKVQHSSYRQRARLLKDQLSLGNAALQITDVKLQDAGVYTCLIAYKGADYKRITVKVNAPYNKINQRILVVDPVTSEHELTCQAEGYPKAEVIWTSSDHQVLSGKTTTTNSKREEKLFNVTSTLRINTTTNEIFYCTFRRLDPEENHTAELVIPELPLAHPPNERGGGSGAPTSSSTKKTQLQLEHLLLDLQMILNGINNYKNPKLTDMLTFEFYMPKKATELKHLQCLERELKPLEEVLNLAQSKNFHLRPRDLISNINVIVLELKGSETTFMCEYADETATIVEFLNRWITFCTSIISTLTGGGGSGGGDKTHTCPPCPAPEKKGGPSVFLFPPKPKDTLMISRTPEVTCVVVDVSHEDPEVKFNWYVDGVEVHNAKTKPREEQYNSTYRVVSVLTVLHQDWLNGKEYKCKVSNKALPAPIEKTISKAKGQPREPQVYVLPPSREEMTKNQVSLLCLVKGFYPSDIAVEWESNGQPENRYMTWPPVLDSDGSFFLYSKLTVDKSRWQQGNVFSCSVMHEALHNHYTQKSLSLSPGK
B3: IL-2(L18R/Q22E/R38D/K43E/E61R)/PD-L1(mut2)-Fc/IL-12(E59A/F60A) (Fc fusion)
chain 1: B1 chain 1
chain 2: B2 chain 2 with L243R, Q247E, T351Q
B4: Fab-IL-12(WT)-Fc-CD4 Ab (other)
light: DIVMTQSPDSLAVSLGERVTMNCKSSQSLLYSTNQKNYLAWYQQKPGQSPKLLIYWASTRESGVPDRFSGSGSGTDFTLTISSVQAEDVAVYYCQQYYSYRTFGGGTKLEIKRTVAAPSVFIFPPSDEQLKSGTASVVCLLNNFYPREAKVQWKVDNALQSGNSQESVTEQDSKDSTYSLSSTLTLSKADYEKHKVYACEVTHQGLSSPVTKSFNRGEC
heavy 1: QVQLQQSGPEVVKPGASVKMSCKASGYTFTSYVIHWVRQKPGQGLDWIGYINPYNDGTDYDEKFKGKATLTSDTSTSTAYMELSSLRSEDTAVYYCAREKDNYATGAWFAYWGQGTLVTVSSASTKGPSVFPLAPSSKSTSGGTAALGCLVKDYFPEPVTVSWNSGALTSGVHTFPAVLQSSGLYSLSSVVTVPSSSLGTQTYICNVNHKPSNTKVDKKVEPKSCDKTHTCPPCPAPEKKGGPSVFLFPPKPKDTLMISRTPEVTCVVVDVSHEDPEVKFNWYVDGVEVHNAKTKPREEQYNSTYRVVSVLTVLHQDWLNGKEYKCKVSNKALPAPIEKTISKAKGQPREPQVYVLPPSREEMTKNQVSLLCLVKGFYPSDIAVEWESNGQPENRYMTWPPVLDSDGSFFLYSKLTVDKSRWQQGNVFSCSVMHEALHNHYTQKSLSLSPGK
heavy 2: QVQLQQSGPEVVKPGASVKMSCKASGYTFTSYVIHWVRQKPGQGLDWIGYINPYNDGTDYDEKFKGKATLTSDTSTSTAYMELSSLRSEDTAVYYCAREKDNYATGAWFAYWGQGTLVTVSSASTKGPSVFPLAPSSKSTSGGTAALGCLVKDYFPEPVTVSWNSGALTSGVHTFPAVLQSSGLYSLSSVVTVPSSSLGTQTYICNVNHKPSNTKVDKKVEPKSCDKPGSGIWELKKDVYVVELDWYPDAPGEMVVLTCDTPEEDGITWTLDQSSEVLGSGKTLTIQVKEFGDAGQYTCHKGGEVLSHSLLLLHKKEDGIWSTDILKDQKEPKNKTFLRCEAKNYSGRFTCWWLTTISTDLTFSVKSSRGSSDPQGVTCGAATLSAERVRGDNKEYEYSVECQEDSACPAAEESLPIEVMVDAVHKLKYENYTSSFFIRDIIKPDPPKNLQLKPLKNSRQVEVSWEYPDTWSTPHSYFSLTFCVQVQGKSKREKKDRVFTDKTSATVICRKNASISVRAQDRYYSSSWSEWASVPCSGGGGSGGGGSGGGGSGGGGSGRNLPVATPDPGMFPCLHHSQNLLRAVSNMLQKARQTLEFYPCTSEEIDHEDITKDKTSTVEACLPLELTKNESCLNSRETSFITNGSCLASRKTSFMMALCLSSIYEDLKMYQVEFKTMNAKLLMDPKRQIFLDQNMLAVIDELMQALNFNSETVPQKSSLEEPDFYKTKIKLCILLHAFRIRAVTIDRVMSYLNASDKTHTCPPCPAPEDEGGPSVFLFPPKPKDTLMISRTPEVTCVVVDVSHEDPEVKFNWYVDGVEVHNAKTKPREEQYNSTYRVVSVLTVLHQDWLNGKEYKCKVSNKALPAPIEKTISKAKGQPREPQVYVYPPSREEMTKNQVSLTCLVKGFYPSDIAVEWESNGQPENNYKTTPPVLDEDGSFALVSKLTVDKSRWQQGNVFSCSVMHEALHNHYTQKSLSLSPGK
notes: copies: 2 + 1 + 1
B5: Fab-IL-12(E59A/F60A)-Fc-CD4 Ab (other)
light: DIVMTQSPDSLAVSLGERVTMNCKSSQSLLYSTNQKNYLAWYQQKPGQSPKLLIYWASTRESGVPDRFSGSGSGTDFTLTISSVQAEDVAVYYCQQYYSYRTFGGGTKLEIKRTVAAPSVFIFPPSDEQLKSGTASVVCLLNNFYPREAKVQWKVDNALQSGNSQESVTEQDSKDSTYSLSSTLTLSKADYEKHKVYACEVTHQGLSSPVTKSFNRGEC
heavy 1: B4 heavy 1
heavy 2: B4 heavy 2 with E290A, F291A
B6: Fab-IL-12(F60A)-Fc-CD4 Ab (other)
light: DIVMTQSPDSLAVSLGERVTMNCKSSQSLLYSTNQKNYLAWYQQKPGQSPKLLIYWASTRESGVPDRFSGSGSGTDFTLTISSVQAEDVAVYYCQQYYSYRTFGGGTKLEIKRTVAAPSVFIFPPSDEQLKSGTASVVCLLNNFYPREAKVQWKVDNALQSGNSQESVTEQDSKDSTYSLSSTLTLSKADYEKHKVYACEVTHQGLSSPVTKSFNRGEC
heavy 1: B4 heavy 1
heavy 2: B4 heavy 2 with F291A
notes: copies: 2 + 1 + 1
B7: Fab-IL-12(E59A)-Fc-CD4 Ab (other)
light: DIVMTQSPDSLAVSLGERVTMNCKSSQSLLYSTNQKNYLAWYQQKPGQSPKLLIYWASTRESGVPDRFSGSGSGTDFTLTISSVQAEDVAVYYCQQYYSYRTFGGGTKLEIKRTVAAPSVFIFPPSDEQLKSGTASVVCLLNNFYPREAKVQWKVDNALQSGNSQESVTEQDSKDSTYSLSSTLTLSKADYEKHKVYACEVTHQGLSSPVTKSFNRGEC
heavy 1: B4 heavy 1
heavy 2: B4 heavy 2 with E290A
notes: copies: 2 + 1 + 1

The binders below were run against T2, human IL-12 receptor complex (IL-12Rβ1, IL-12Rβ2) (human, UniProt P42701 24-662; Q99665 24-862) (assay: cell-based or functional assay).
T2 sequence (Q99665 24-862, chain 2 of 2, other chains not shown): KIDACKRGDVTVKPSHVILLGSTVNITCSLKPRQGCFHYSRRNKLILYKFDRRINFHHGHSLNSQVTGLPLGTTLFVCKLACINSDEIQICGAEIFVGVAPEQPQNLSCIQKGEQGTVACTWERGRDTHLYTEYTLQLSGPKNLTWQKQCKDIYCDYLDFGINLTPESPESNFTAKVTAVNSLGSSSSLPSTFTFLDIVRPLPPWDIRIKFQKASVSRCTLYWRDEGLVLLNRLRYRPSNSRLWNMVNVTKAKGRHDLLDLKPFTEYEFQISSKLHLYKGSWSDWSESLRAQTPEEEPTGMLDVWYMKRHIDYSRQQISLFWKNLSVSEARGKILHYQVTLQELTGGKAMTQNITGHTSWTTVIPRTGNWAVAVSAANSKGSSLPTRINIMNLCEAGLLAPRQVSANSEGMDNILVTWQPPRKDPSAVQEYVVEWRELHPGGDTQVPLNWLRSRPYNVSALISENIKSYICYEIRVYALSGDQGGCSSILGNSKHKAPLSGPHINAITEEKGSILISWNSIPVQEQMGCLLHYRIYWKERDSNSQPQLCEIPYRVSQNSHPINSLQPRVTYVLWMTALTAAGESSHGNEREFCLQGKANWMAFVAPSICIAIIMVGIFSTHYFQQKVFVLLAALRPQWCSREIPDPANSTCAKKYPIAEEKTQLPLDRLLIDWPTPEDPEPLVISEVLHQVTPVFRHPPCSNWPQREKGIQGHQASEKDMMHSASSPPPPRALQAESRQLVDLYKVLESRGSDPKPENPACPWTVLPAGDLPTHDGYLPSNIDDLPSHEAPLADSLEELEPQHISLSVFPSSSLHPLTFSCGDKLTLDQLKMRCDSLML
In the case of B1, the “IL-12 biological activity, HEK-IL-12” value is reported as 1% and the “IL-12 biological activity, HEK-IL-12-PD-1” value is reported as 25%.
For B2, the “IL-12 biological activity, HEK-IL-12” value was 1% and the “IL-12 biological activity, HEK-IL-12-PD-1” value was 30%.
In the case of B3, the “IL-12 biological activity, HEK-IL-12” value is reported as 2% and the “IL-12 biological activity, HEK-IL-12-PD-1” value is reported as 27%.

The binders below were run against T1, human IL-2 receptor (IL-2Rα, IL-2Rβ, …) (assay: cell-based or functional assay).
B1 was tested, and the “IL-2 biological activity, HEK-IL-2” value was under 0.1% and the “IL-2 biological activity, HEK-IL-2-PD-1” value was under 0.1%.
B2 was tested, and the “IL-2 biological activity, HEK-IL-2” value was 3% and the “IL-2 biological activity, HEK-IL-2-PD-1” value was 31%.
With B3 the “IL-2 biological activity, HEK-IL-2” value was 3% and the “IL-2 biological activity, HEK-IL-2-PD-1” value was 32%.

The binders below were run against T3, CD8 on CD8+ T cells (UniProt P01732 22-235) (assay: FACS).
T3 construct: whole, on cells
T3 sequence (P01732 22-235): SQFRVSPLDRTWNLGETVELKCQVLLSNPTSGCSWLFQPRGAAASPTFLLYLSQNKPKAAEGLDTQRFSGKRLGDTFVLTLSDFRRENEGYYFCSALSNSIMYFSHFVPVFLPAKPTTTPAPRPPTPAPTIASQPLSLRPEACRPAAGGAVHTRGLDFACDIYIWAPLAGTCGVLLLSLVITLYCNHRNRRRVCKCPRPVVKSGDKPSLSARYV
B4: no binding.
B5: no binding.
B6: no binding.
B7: no binding.

Target: T2, human IL-12 receptor complex (IL-12Rβ1, …)
Assay: cell-based or functional assay
Remark: another data set of the same source
B4 was tested, and the “IL-12 biological activity (IFN-γ release), CD4+ T cells” value was 43% and the “IL-12 biological activity (IFN-γ release), CD8+ T cells” value was 25%.
With B5 the “IL-12 biological activity (IFN-γ release), CD4+ T cells” value was 8.2% and the “IL-12 biological activity (IFN-γ release), CD8+ T cells” value was 0%.
For B6, the “IL-12 biological activity (IFN-γ release), CD4+ T cells” value was 32.2% and the “IL-12 biological activity (IFN-γ release), CD8+ T cells” value was 1.5%.
B7 was tested, and the “IL-12 biological activity (IFN-γ release), CD4+ T cells” value was 29.8% and the “IL-12 biological activity (IFN-γ release), CD8+ T cells” value was 1.1%.
